Data published in the supplement of paper PMC10724198.
± gives the standard deviation of the averaged measurements.

Legend:
[1] = system: Saccharomyces cerevisiae; assay: protein stability index of tFT-peptide fusion (C-terminal peptide) (PSI (0-1 scale)); higher = more stable (slower turnover)
Experimental: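 MPS profiling in S. cerevisiae of the tFT-X12 degron library: putative degron peptides plus stable controls, 12 aa, fused to the C-terminus of a sfGFP-mCherry timer. Cells are FACS-sorted into 8 mCherry/sfGFP bins and deep-sequenced. PSI runs from 0 (unstable) to 1 (stable). Backgrounds are wild type, das1Δ and doa10Δ at 30 °C, and wild type, das1Δ, cdc34-1 and cdc53-1 at 37 °C; 2-3 technical replicates each.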

[2] = system: Saccharomyces cerevisiae; assay: as above; conditions: genetic background: wild type; temperature: 30 C
[3] = genetic background: cdc34-1, temperature: 37 C
[4] = genetic background: cdc53-1, temperature: 37 C
[5] = genetic background: das1 deletion, temperature: 30 C
[6] = genetic background: das1 deletion, temperature: 37 C
[7] = genetic background: doa10 deletion, temperature: 30 C
[8] = genetic background: wild type, temperature: 30 C
[9] = genetic background: wild type, temperature: 37 C
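Note: PSI is a weighted mean of sequencing reads over stability bins, variants kept only with over 10 reads, mCherry proximal and sfGFP distal, peptide attached via GGGS linker.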

Sequence: RPPHPPPATFLS
- protein stability index [1, 3]: 0.617 ± 0.064
- protein stability index [1, 4]: 0.7 ± 0.0084
- protein stability index [1, 5]: 0.679 ± 0.018
- protein stability index [1, 6]: 0.727 ± 0.0097
- protein stability index [1, 7]: 0.226 ± 0.025
- protein stability index [1, 8]: 0.253 ± 0.025
- protein stability index [1, 9]: 0.487 ± 0.021

Sequence: WPPPPPSLLLLC
- protein stability index [1, 3]: 0.4666 ± 0.0016
- protein stability index [1, 4]: 0.548 ± 0.022
- protein stability index [1, 5]: 0.473 ± 0.016
- protein stability index [1, 6]: 0.611 ± 0.017
- protein stability index [1, 7]: 0.127 ± 0.0019
- protein stability index [1, 8]: 0.149 ± 0.019
- protein stability index [1, 9]: 0.177 ± 0.024

Sequence: APPFPPPPARSL
- protein stability index [1, 3]: 0.644 ± 0.034
- protein stability index [1, 4]: 0.713 ± 0.0095
- protein stability index [1, 5]: 0.675 ± 0.019
- protein stability index [1, 6]: 0.718 ± 0.033
- protein stability index [1, 7]: 0.694 ± 0.022
- protein stability index [1, 8]: 0.68 ± 0.017
- protein stability index [1, 9]: 0.677 ± 0.015

Sequence: QYKRFYGSLVNG
- protein stability index [2]: 0.608 ± 0.047

Sequence: RKTQKIEQKQKE
- protein stability index [2]: 0.756 ± 0.076

Sequence: CGLRVVGVVGAP
- protein stability index [2]: 0.712 ± 0.062

Sequence: GGVLERARRRGG
- protein stability index [2]: 0.708 ± 0.2

Sequence: LEWGRGFGLWGG
- protein stability index [2]: 0.7823 ± 0.004

Sequence: CNDAYKSKLARL
- protein stability index [2]: 0.696 ± 0.034

Sequence: LPRHKWLPSGLG
- protein stability index [2]: 0.686 ± 0.056

Sequence: RYGARAGPPVNL
- protein stability index [2]: 0.68 ± 0.054

Sequence: SVTLYLTPPSLT
- protein stability index [2]: 0.67 ± 0.062

Sequence: ISVPPFPAPPPP
- protein stability index [2]: 0.745 ± 0.13

Sequence: GRRLVHKVDWSL
- protein stability index [2]: 0.666 ± 0.043

Sequence: RTPPLPLLPPHP
- protein stability index [2]: 0.788 ± 0.052

Sequence: STSSPSSSTLLP
- protein stability index [2]: 0.719 ± 0.031

Sequence: SSSRHHTSLFSP
- protein stability index [2]: 0.679 ± 0.014

Sequence: TRKFATPRITVV
- protein stability index [2]: 0.6939 ± 0.0038

Sequence: RSDKRTRYRIII
- protein stability index [2]: 0.751 ± 0.17

Sequence: LNSSGPGYGFPG
- protein stability index [2]: 0.743 ± 0.05

Sequence: GFLGTLARAGRE
- protein stability index [2]: 0.657 ± 0.068

Sequence: GRGEIQDRRCRG
- protein stability index [2]: 0.668 ± 0.049

Sequence: LIFDISDLVWYI
- protein stability index [2]: 0.636 ± 0.031

Sequence: HRRCPVPRGSSP
- protein stability index [2]: 0.704 ± 0.019

Sequence: PGTGAASGTGGA
- protein stability index [2]: 0.689 ± 0.012

Sequence: SRSAPPPSPGMT
- protein stability index [2]: 0.746 ± 0.052

Sequence: PTHDPPSLHSPA
- protein stability index [2]: 0.604 ± 0.027

Sequence: SVYLPFPSGLLL
- protein stability index [2]: 0.728 ± 0.073

Sequence: IRGYSVKRIRED
- protein stability index [2]: 0.683 ± 0.045

Sequence: FAPTRAAPVTVS
- protein stability index [2]: 0.5712 ± 0.0057

Sequence: TRDTEKTGRREP
- protein stability index [2]: 0.715 ± 0.0013

Sequence: VVVSDFRSCNMS
- protein stability index [2]: 0.736 ± 0.043

Sequence: RVIIWDRRFLAG
- protein stability index [2]: 0.6793 ± 0.0026

Sequence: FLPPPPVLPSLP
- protein stability index [2]: 0.697 ± 0.024

Sequence: EVGFPGRSWGAG
- protein stability index [2]: 0.689 ± 0.07

Sequence: CCVYFLSMFFVL
- protein stability index [2]: 0.575 ± 0.026

Sequence: LPSPSYPAPVPN
- protein stability index [2]: 0.65 ± 0.074

Sequence: SFAKHRNASMGR
- protein stability index [2]: 0.691 ± 0.04

Sequence: ARIECLIFPGCK
- protein stability index [2]: 0.626 ± 0.022

Sequence: RPPCFRPPPPPL
- protein stability index [2]: 0.715 ± 0.072

Sequence: HREGTTAFFKTH
- protein stability index [2]: 0.536 ± 0.013

Sequence: QMSHTGPTTIQS
- protein stability index [2]: 0.695 ± 0.023

Sequence: RPSPSAQFITCA
- protein stability index [2]: 0.646 ± 0.013

Sequence: IPFPSFPASLYR
- protein stability index [2]: 0.694 ± 0.021

Sequence: SPRFSPPAILHN
- protein stability index [2]: 0.71 ± 0.0091

Sequence: PSFRTGLPPSDP
- protein stability index [2]: 0.681 ± 0.038

Sequence: PPAPRPRSPSPL
- protein stability index [2]: 0.719 ± 0.0085

Sequence: RPSLTPSPPPFP
- protein stability index [2]: 0.64 ± 0.018

Sequence: GGVGRSWQEVGG
- protein stability index [2]: 0.72 ± 0.025

Sequence: QTHFRPDYALDW
- protein stability index [2]: 0.753 ± 0.064

Sequence: QSPSALAEGPDD
- protein stability index [2]: 0.641 ± 0.099

Sequence: RPTPLSTPPPLG
- protein stability index [2]: 0.644 ± 0.039

Sequence: PPPPPVSSPLVT
- protein stability index [2]: 0.657 ± 0.048

Sequence: VGQVVTCFMSDA
- protein stability index [2]: 0.678 ± 0.028

Sequence: QSYRGIGFRTTM
- protein stability index [2]: 0.607 ± 0.049

Sequence: PPRPPPSSPHLV
- protein stability index [2]: 0.698 ± 0.023

Sequence: PSLHPNHLAPPP
- protein stability index [2]: 0.622 ± 0.046

Sequence: FNVSCLRPNMGE
- protein stability index [2]: 0.712 ± 0.044

Sequence: SCAPRSPCTPPP
- protein stability index [2]: 0.718 ± 0.015

Sequence: DARLSPVRNRLF
- protein stability index [2]: 0.652 ± 0.17

Sequence: STNIDQKKKEEK
- protein stability index [2]: 0.7 ± 0.03

Sequence: VCRCYILSFPQR
- protein stability index [2]: 0.688 ± 0.028

Sequence: TNQITRHELTTY
- protein stability index [2]: 0.599 ± 0.043

Sequence: LPSGLTSPPRSS
- protein stability index [2]: 0.712 ± 0.031

Sequence: VRVGVGGVSEFE
- protein stability index [2]: 0.67062 ± 0.00015

Sequence: SVFVDNLAFSLD
- protein stability index [2]: 0.708 ± 0.071

Sequence: QLSTSGLTTTAW
- protein stability index [2]: 0.707 ± 0.029

Sequence: WLAVVGRDGFLG
- protein stability index [2]: 0.729 ± 0.016

Sequence: CNQRRWRGRKGY
- protein stability index [2]: 0.67 ± 0.01

Sequence: GSFPRLPPSKSF
- protein stability index [2]: 0.724 ± 0.14

Sequence: LCFRSLFLCSLF
- protein stability index [2]: 0.577 ± 0.13

Sequence: DALWLAFFDVID
- protein stability index [2]: 0.711 ± 0.068

Sequence: KIQLTTMKNHGK
- protein stability index [2]: 0.685 ± 0.013

Sequence: EVTGGRGGEGGV
- protein stability index [2]: 0.694 ± 0.046

Sequence: GSAGSAVRNVVS
- protein stability index [2]: 0.647 ± 0.051

Sequence: WGLGVGGCGWVG
- protein stability index [2]: 0.67 ± 0.018

Sequence: LPITTPLPPLDP
- protein stability index [2]: 0.688 ± 0.02

Sequence: SSKVFCRVAKRE
- protein stability index [2]: 0.724 ± 0.026

Sequence: ESRARRRQGGKR
- protein stability index [2]: 0.738 ± 0.015

Sequence: EGGGGKGRKRRA
- protein stability index [2]: 0.712 ± 0.022

Sequence: FSRLNAKLPCLA
- protein stability index [2]: 0.579 ± 0.06

Sequence: SGHRLTYEFFPT
- protein stability index [2]: 0.741 ± 0.074

Sequence: HAAWQHPNTTQV
- protein stability index [2]: 0.714 ± 0.013

Sequence: LQCCVAVTNYCV
- protein stability index [2]: 0.54 ± 0.016

Sequence: CPPVRLSLPPSL
- protein stability index [2]: 0.68 ± 0.019

Sequence: ARRGIVQSRCNW
- protein stability index [2]: 0.684 ± 0.064

Sequence: FGLPFPSNIVSG
- protein stability index [2]: 0.757 ± 0.024

Sequence: NLETDRRRTYGM
- protein stability index [2]: 0.697 ± 0.036

Sequence: EEVKKRTLKVID
- protein stability index [2]: 0.738 ± 0.021

Sequence: EGLPGGLRGCLR
- protein stability index [2]: 0.687 ± 0.021

Sequence: LPLPPLPPPSCP
- protein stability index [2]: 0.718 ± 0.032

Sequence: LRRNHREPGYSK
- protein stability index [2]: 0.684 ± 0.024

Sequence: GGVGGGVRRPGE
- protein stability index [2]: 0.669 ± 0.034

Sequence: RLSNIARRQENG
- protein stability index [2]: 0.623 ± 0.017

Sequence: GGGEGVPDSASE
- protein stability index [2]: 0.668 ± 0.021

Sequence: DAACDSGLSAEW
- protein stability index [2]: 0.722 ± 0.015

Sequence: PPLPSPLCPQPP
- protein stability index [2]: 0.714 ± 0.032

Sequence: EKKYKKKYKKKE
- protein stability index [2]: 0.641 ± 0.031

Sequence: LLPFIPPPPCPP
- protein stability index [2]: 0.658 ± 0.02

Sequence: RRIQNHPDSTSA
- protein stability index [2]: 0.696 ± 0.067

Sequence: AGGGGRLTRSRA
- protein stability index [2]: 0.691 ± 0.087

Sequence: EGSSGVLESRAG
- protein stability index [2]: 0.671 ± 0.026

Sequence: SYPTRSKSAYSL
- protein stability index [2]: 0.652 ± 0.059

Sequence: DAAFRMTRLVVR
- protein stability index [2]: 0.6172 ± 0.0015

Sequence: IRTITSVQTFPE
- protein stability index [2]: 0.673 ± 0.029

Sequence: VLWVLDAFCFGG
- protein stability index [2]: 0.643 ± 0.0084

Sequence: SMKAYRTLKTRL
- protein stability index [2]: 0.636 ± 0.075

Sequence: SRRGVVGLRVGI
- protein stability index [2]: 0.674 ± 0.033

Sequence: SAFFSAWVLVLD
- protein stability index [2]: 0.555 ± 0.024

Sequence: WSDGGRGGGWGK
- protein stability index [2]: 0.656 ± 0.015

Sequence: EGREGQRHRRVI
- protein stability index [2]: 0.669 ± 0.01

Sequence: SFACLLGRGWVD
- protein stability index [2]: 0.719 ± 0.06

Sequence: RPGDAASGARGA
- protein stability index [2]: 0.691 ± 0.081

Sequence: ADGLVGLLLSVV
- protein stability index [2]: 0.62 ± 0.024

Sequence: RACGVSMRIKGG
- protein stability index [2]: 0.695 ± 0.033

Sequence: LLHPLPPPSYPP
- protein stability index [2]: 0.689 ± 0.01

Sequence: KGRAGTDVPLAR
- protein stability index [2]: 0.712 ± 0.052

Sequence: LDLLRCIQHCVV
- protein stability index [2]: 0.637 ± 0.027

Sequence: WPAFYTSRLLLR
- protein stability index [2]: 0.615 ± 0.034

Sequence: ENRGIEITGKRS
- protein stability index [2]: 0.727 ± 0.022

Sequence: VPLTKHENNFNE
- protein stability index [2]: 0.709 ± 0.018

Sequence: PYIPSSVSLRQD
- protein stability index [2]: 0.712 ± 0.0092

Sequence: ISYLSILTSCPW
- protein stability index [2]: 0.65423 ± 0.00026

Sequence: LPPALAPLPPPL
- protein stability index [2]: 0.572 ± 0.021

Sequence: CFGFSLKFGTGK
- protein stability index [2]: 0.668 ± 0.033

Sequence: GQRKQKIKKKRK
- protein stability index [2]: 0.647 ± 0.16

Sequence: SPCLTRSALPSP
- protein stability index [2]: 0.687 ± 0.038

Sequence: WVSRDFLVEAVW
- protein stability index [2]: 0.557 ± 0.026

Sequence: LWGSGRNWLLWR
- protein stability index [2]: 0.7 ± 0.017

Sequence: HCSWRSLMTLAG
- protein stability index [2]: 0.642 ± 0.031

Sequence: HPPITPYLHRRT
- protein stability index [2]: 0.724 ± 0.17

Sequence: PLNSNSYDASPL
- protein stability index [2]: 0.658 ± 0.052

Sequence: PLWAVRPLLPPE
- protein stability index [2]: 0.677 ± 0.016

Sequence: CRILSPLPAIFV
- protein stability index [2]: 0.5298 ± 0.0045

Sequence: SPSPLPLSPSPL
- protein stability index [2]: 0.749 ± 0.086

Sequence: SAVVPYLGWSPV
- protein stability index [2]: 0.708 ± 0.015

Sequence: LRVQFFFLAGCT
- protein stability index [2]: 0.584 ± 0.006
